Patent US20260070987A1
Where a chain is given by its changes, count along the chain named. Numbers in names are those of the source.

What was measured:
[1] = molecular target: equine FcRn (large alpha subunit p51) in complex with equine beta-2-microglobulin (equine) (UniProt F6XZ61); assay: SPR (Biacore), pH 6
[2] = molecular target: equine FcRn (large alpha subunit p51) / equine beta-2-microglobulin complex, biotinylated (equine) (UniProt P30441); assay: SPR (Biacore), pH 6
[3] = molecular target: equine FcRn (large alpha subunit p51) / equine beta-2-microglobulin complex, biotinylated (equine) (UniProt P30441); assay: SPR (Biacore), pH 7.4

Sequence of UniProt F6XZ61 (F6XZ61 entry or part of it, one chain of several): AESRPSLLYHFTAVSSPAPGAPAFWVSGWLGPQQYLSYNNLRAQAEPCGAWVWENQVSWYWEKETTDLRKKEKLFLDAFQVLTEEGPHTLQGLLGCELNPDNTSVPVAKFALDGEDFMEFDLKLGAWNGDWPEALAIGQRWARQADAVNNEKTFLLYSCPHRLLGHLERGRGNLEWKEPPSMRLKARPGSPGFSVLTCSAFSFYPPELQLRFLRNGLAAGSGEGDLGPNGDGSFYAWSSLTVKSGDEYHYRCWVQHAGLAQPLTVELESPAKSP
Sequence of UniProt P30441 (P30441 21-118, one chain of several): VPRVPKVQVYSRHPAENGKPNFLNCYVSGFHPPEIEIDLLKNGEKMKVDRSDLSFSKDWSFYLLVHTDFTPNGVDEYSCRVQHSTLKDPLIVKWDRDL

B1: equine IgG7 Y436M mutant (antibody, part only; not given: variable domains, not shown: another chain or arm of the molecule)
constant: ASTTAPKVFPLASHSAATSGSTVALGCLVSSYFPEPVTVSWNSGALTSGVHTFPSVLQSSGLYSLSSMVTVPASSLKSQTYICNVAHPASSTKVDKKIVIKECGGCPTCPECLSVGPSVFIFPPKPKDVLMISRTPTVTCVVVDVGHDFPDVQFNWYVDGVETHTATTEPKQEQNNSTYRVVSILAIQHKDWLSGKEFKCKVNNQALPAPVQKTISKPTGQPREPQVYVLAPHRDELSKNKVSVTCLVKDFYPTDIDIEWKSNGQPEPETKYSTTPAQLDSDGSYFLYSKLTVETNRWQQGTTFTCAVMHEALHNHMTEKSVSKSPGK
Kd [1]: 5.5 nM

B2: equine IgG7 T286K mutant (antibody, part only; not given: variable domains, not shown: another chain or arm of the molecule)
constant: B1 constant with T165K, M317Y
Kd [1]: 20.6 nM

B3: equine IgG7 T286E mutant (antibody, part only; not given: variable domains, not shown: another chain or arm of the molecule)
constant: B1 constant with T165E, M317Y
Kd [1]: 35.5 nM

B4: equine IgG7 T286G mutant (antibody, part only; not given: variable domains, not shown: another chain or arm of the molecule)
constant: B1 constant with T165G, M317Y
Kd [1]: 18.2 nM

B5: equine IgG7 T286S mutant (antibody, part only; not given: variable domains, not shown: another chain or arm of the molecule)
constant: B1 constant with T165S, M317Y
Kd [1]: 17.1 nM

B6: equine IgG7 Y436T mutant (antibody, part only; not given: variable domains, not shown: another chain or arm of the molecule)
constant: B1 constant with M317T
Kd [1]: 36.2 nM

B7: equine IgG7 Y436Q mutant (antibody, part only; not given: Variable domains, not shown: another chain or arm of the molecule)
constant: B1 constant with M317Q
Kd [1]: 9.1 nM

B8: equine IgG7 T286C mutant (antibody, part only; not given: variable domains, not shown: another chain or arm of the molecule)
constant: B1 constant with T165C, M317Y
Kd [1]: 84.4 nM

B9: equine IgG7 Y436S mutant (antibody, part only; not given: variable domains, not shown: another chain or arm of the molecule)
constant: B1 constant with M317S
Kd [1]: 169 nM

B10: equine IgG7 T286R mutant (antibody, part only; not given: variable domains, not shown: another chain or arm of the molecule)
constant: B1 constant with T165R, M317Y
Kd [1]: 7.8 nM

B11: equine IgG7 T286W mutant (antibody, part only; not given: variable domains, not shown: another chain or arm of the molecule)
constant: B1 constant with T165W, M317Y
Kd [1]: 15.4 nM

B12: equine IgG7 T286D mutant (antibody, part only; not given: Variable domains, not shown: another chain or arm of the molecule)
constant: B1 constant with T165D, M317Y
Kd [1]: 47.5 nM

B13: equine IgG7 Y436N mutant (antibody, part only; not given: Variable domains, not shown: another chain or arm of the molecule)
constant: B1 constant with M317N
Kd [1]: 65.5 nM

B14: equine IgG7 T286Y mutant (antibody, part only; not given: Variable domains, not shown: another chain or arm of the molecule)
constant: B1 constant with T165Y, M317Y
Kd [1]: 14.9 nM

B15: equine IgG7 T286V mutant (antibody, part only; not given: Variable domains, not shown: another chain or arm of the molecule)
constant: B1 constant with T165V, M317Y
Kd [1]: 2.3 nM

B16: equine IgG7 Y436V mutant (antibody, part only; not given: Variable domains, not shown: another chain or arm of the molecule)
constant: B1 constant with M317V
Kd [1]: 6.7 nM

B17: equine IgG7 T286H mutant (antibody, part only; not given: variable domains, not shown: another chain or arm of the molecule)
constant: B1 constant with T165H, M317Y
Kd [1]: 16 nM

B18: equine IgG7 T286Q mutant (antibody, part only; not given: variable domains, not shown: another chain or arm of the molecule)
constant: B1 constant with T165Q, M317Y
Kd [1]: 7.7 nM

B19: equine IgG7 T286F mutant (antibody, part only; not given: variable domains, not shown: another chain or arm of the molecule)
constant: B1 constant with T165F, M317Y
Kd [1]: 7.8 nM

B20: equine IgG7 T286A mutant (antibody, part only; not given: variable domains, not shown: another chain or arm of the molecule)
constant: B1 constant with T165A, M317Y
Kd [1]: 110 nM

B21: equine IgG7 Y436R mutant (antibody, part only; not given: variable domains, not shown: another chain or arm of the molecule)
constant: B1 constant with M317R
Kd [1]: 7.7 nM

B22: equine IgG7 Y436W mutant (antibody, part only; not given: Variable domains, not shown: another chain or arm of the molecule)
constant: B1 constant with M317W
Kd [1]: 28.2 nM

B23: equine IgG7 T286M mutant (antibody, part only; not given: variable domains, not shown: another chain or arm of the molecule)
constant: B1 constant with T165M, M317Y
Kd [1]: 19.3 nM

B24: equine IgG7 T286I mutant (antibody, part only; not given: variable domains, not shown: another chain or arm of the molecule)
constant: B1 constant with T165I, M317Y
Kd [1]: 15.8 nM

B25: equine IgG7 T286L mutant (antibody, part only; not given: Variable domains, not shown: another chain or arm of the molecule)
constant: B1 constant with T165L, M317Y
Kd [1]: 14 nM

B26: equine IgG7 T286P mutant (antibody, part only; not given: variable domains, not shown: another chain or arm of the molecule)
constant: B1 constant with T165P, M317Y
Kd [1]: 6.9 nM

B27: equine IgG1 N434W (antibody, part only; not given: Variable domains, not shown: another chain or arm of the molecule)
constant: ASTTAPKVFALAPGCGTTSDSTVALGCLVSGYFPEPVKVSWNSGSLTSGVHTFPSVLQSSGFYSLSSMVTVPASTWTSETYICNVVHAASNFKVDKRIEPIPDNHQKVCDMSKCPKCPAPELLGGPSVFIFPPNPKDTLMITRTPEVTCVVVDVSQENPDVKFNWYMDGVEVRTATTRPKEEQFNSTYRVVSVLRIQHQDWLSGKEFKCKVNNQALPQPIERTITKTKGRSQEPQVYVLAPHPDELSKSKVSVTCLVKDFYPPEINIEWQSNGQPELETKYSTTQAQQDSDGSYFLYSKLSVDRNRWQQGTTFTCGVMHEALHWHYTQKNVSKNPGK
Kd [2]: 1.86 nM | Kd [3]: 7310 nM

B28: equine IgG1 N434F (antibody, part only; not given: variable domains, not shown: another chain or arm of the molecule)
constant: B27 constant with W324F
Kd [2]: 2.83 nM | Kd [3]: 14600 nM
